B1: H8S, Q5NV88 (parent)
chain: NFMLTQPHSVSESPGKTVTISCTRSSGSIASNYVQWYQQRPGSSPTTVIYEDNQRPSGVPDRFSGSIDSSSNSASLTISGLKTEDEADYYCQSYDSSN

Variants of: B1
Conditions: Homo sapiens, pH 7.5, Fluorescence, Sodium phosphate 20mM, transition: 2, structure 2W0K, whole UniProt chain shown

| Variant | ddG of mutation (higher = less stable) (25 °C, GdnHCl) [kcal/mol] | denaturant midpoint (higher = more stable) (25 °C, GdnHCl) [M] | unfolding free energy (25 °C, GdnHCl) [kcal/mol] | Tm (Thermal) [°C] | change of melting temperature, mutant - wild type (higher = more stable) (Thermal) [°C] | ddG of mutation (higher = less stable) (Thermal) [kcal/mol] | unfolding enthalpy (calorimetric) (Thermal) [kcal/mol] | unfolding free energy (Thermal) [kcal/mol] |
| --- | --- | --- | --- | --- | --- | --- | --- | --- |
| H8S | 0.6 | 1.28 | 4.5 | 49.5 | -0.4 | 0.2 | 84.4 | 5 |
| H8P | – | – | – | 50.1 | 0.2 | 0.8 | 84.8 | 4.4 |
| P7S | 2.6 | 0.84 | 2.5 | 43 | -6.9 | 1.5 | 79.5 | 3.7 |
| P7S H8S | – | – | – | 43.7 | -6.2 | 1.4 | 79.4 | 3.8 |

Source: FireProtDB (doi:10.1016/j.jmb.2009.11.038)
